According to WO2021241730A1 (dated 2021):
Values belong to the binder of their own block, whether it stands above or below them.

Experiments:
[1] = target: T1, mouse IL-22BP-His (mouse, UniProt Q80XF5 21-230); test: direct ELISA on coated mouse IL-22BP-His
T1 chain: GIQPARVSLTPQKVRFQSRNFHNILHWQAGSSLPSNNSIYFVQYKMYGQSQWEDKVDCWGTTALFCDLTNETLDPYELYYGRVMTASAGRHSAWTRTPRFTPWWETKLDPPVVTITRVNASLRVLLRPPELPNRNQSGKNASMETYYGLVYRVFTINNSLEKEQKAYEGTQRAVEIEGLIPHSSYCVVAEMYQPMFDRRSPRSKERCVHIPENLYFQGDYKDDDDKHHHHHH

[2] = target: T2, monkey IL-22BP-His (monkey); test: direct ELISA on coated monkey IL-22BP-His, purified rat antibody
T2 chain: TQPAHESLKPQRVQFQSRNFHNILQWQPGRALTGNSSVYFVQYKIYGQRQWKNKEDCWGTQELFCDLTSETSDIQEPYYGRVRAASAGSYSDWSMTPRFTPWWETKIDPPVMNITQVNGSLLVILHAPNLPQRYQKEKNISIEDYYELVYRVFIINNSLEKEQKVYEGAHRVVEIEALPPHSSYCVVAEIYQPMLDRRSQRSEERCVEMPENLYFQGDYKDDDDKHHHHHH

[3] = target: T3, human IL-22BP (Isoform 2)-His (human, UniProt Q969J5 22-263); test: direct ELISA on coated human IL-22BP-His, purified rat antibody
T3 construct: Expressed in FreeStyle 293F cells and purified from the culture supernatant; also called human IL-22BP-His
T3 sequence: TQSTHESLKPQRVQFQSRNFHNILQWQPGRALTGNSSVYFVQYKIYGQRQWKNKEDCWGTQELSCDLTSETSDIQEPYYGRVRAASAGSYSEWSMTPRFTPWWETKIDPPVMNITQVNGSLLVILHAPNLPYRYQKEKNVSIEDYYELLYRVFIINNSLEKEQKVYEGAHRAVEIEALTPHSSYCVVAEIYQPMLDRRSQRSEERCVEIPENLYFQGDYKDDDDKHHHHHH

[4] = target: T3, human IL-22BP (Isoform 2)-His; test: direct ELISA screen on coated human IL-22BP-His, then competition ELISA with IL-22; hybridoma supernatant
[5] = target: T3, human IL-22BP (Isoform 2)-His; test: competition ELISA on captured human IL-22BP-His, IL-22 as competitor; stronger inhibitory tendency than cMAb4 and the hMAb4 antibodies
[6] = target: T1, mouse IL-22BP-His; test: direct ELISA on coated mouse IL-22BP-His, purified rat antibody
[7] = target: T3, human IL-22BP (Isoform 2)-His; test: competition ELISA on captured human IL-22BP-His, IL-22 as competitor; weaker inhibitory tendency than cMAb3 and the hMAb3 antibodies

- binding result [1]: no binding
- binding result [2]: binds
- binding result [3]: binds
B1: rat anti-human IL-22BP antibody rMAb81 (antibody, rat IgG1, V domains shown)
VH: EVQLVESGGGLVQPGRSLKLSCLASGFTFSNYGMNWIRQAPGKGLEWVATISSGSSYIYYADTVKGRFTISRENARNTLYLQMTSLRSEDTAFYYCARPLTGAFDYWGQGVMVTVSS
VL: DIVLTQSPALAASLGQRATISCRASQSVSTSSHNLMHWYQQKPGHQPKLLIYAASNLASSIPARFSGSGSGTDFTLTINPVQADDIATYYCQQSRELPLTFGSGTKLEIKR
notes: Rat IgG1, kappa chain, from hybridoma

- binding result [1]: no binding
- binding result [4]: binds
- binding result [2]: binds
B2: rat anti-human IL-22BP antibody rMAb3 (antibody, rat IgG1, V domains shown)
VH: EVQLQQSGAELVRPGTSVKLSCKLSGGTISAYFIHFVKQRPGQGLEWIGRIDPEDDSTEYAEKFKNKATLTADTSSNTAYLILGSLTSDDTATYFCTTGSDYWGQGVMVTVSS
VL: DVVMTQTPVSLSLAIGQPASISCKSSQSLLGTSGKTFLNWILQRPGQSPKRLIYQVSKLYSGVPDRFSGSGSETEFTLKISRVEAEDLGVYYCWQGTLFPRTFGGGTKLEVKR
notes: as for B1

- binding result [5]: binds
B3: humanized anti-human IL-22BP antibody hMAb3_H01L03 (antibody, human IgG1, kappa, V domains shown)
VH: EVQLVQSGAEVKKPGASVKVSCKASGGTISAYFIHWVRQAPGQGLEWMGRIDPEDDSTEYAQKFQGRVTITADTSTNTAYMELSSLRSEDTAVYYCTTGSDYWGQGTLVTVSS
VL: DVVMTQTPVSLPVTLGQPASISCKSSQSLLGTSGKTFLNWIQQRPGQSPKRLIYQVSKLYSGVPDRFSGSGSGTDFTLKISRVEAEDVGVYYCWQGTLFPRTFGGGTKVEIKR
notes: Human IgG1 / kappa

- binding result [5]: binds
B4: human chimeric anti-human IL-22BP antibody cMAb3 (antibody, human IgG1, kappa, V domains shown)
VH: EVQLQQSGAELVRPGTSVKLSCKLSGGTISAYFIHFVKQRPGQGLEWIGRIDPEDDSTEYAEKFKNKATLTADTSSNTAYLILGSLTSDDTATYFCTTGSDYWGQGVMVTVSS
VL: DVVMTQTPVSLSLAIGQPASISCKSSQSLLGTSGKTFLNWILQRPGQSPKRLIYQVSKLYSGVPDRFSGSGSETEFTLKISRVEAEDLGVYYCWQGTLFPRTFGGGTKLEVKR
notes: Rat variable regions on human IgG1 / kappa constant regions

- binding result [5]: binds
B5: humanized anti-human IL-22BP antibody hMAb3_H04L03 (antibody, human IgG1, kappa, V domains shown)
VH: EVQLVQSGAEVKKPGASVKVSCKLSGGTISAYFIHFVRQAPGQGLEWMGRIDPEDDSTEYAQKFQGRVTLTADTSTNTAYLELSSLRSEDTAVYFCTTGSDYWGQGTLVTVSS
VL: DVVMTQTPVSLPVTLGQPASISCKSSQSLLGTSGKTFLNWIQQRPGQSPKRLIYQVSKLYSGVPDRFSGSGSGTDFTLKISRVEAEDVGVYYCWQGTLFPRTFGGGTKVEIKR
notes: Human IgG1 / kappa

- binding result [5]: binds
B6: humanized anti-human IL-22BP antibody hMAb3_H01L04 (antibody, human IgG1, kappa, V domains shown)
VH: EVQLVQSGAEVKKPGASVKVSCKASGGTISAYFIHWVRQAPGQGLEWMGRIDPEDDSTEYAQKFQGRVTITADTSTNTAYMELSSLRSEDTAVYYCTTGSDYWGQGTLVTVSS
VL: DVVMTQSPLSLPVTLGQPASISCKSSQSLLGTSGKTFLNWIQQRPGQSPKRLIYQVSKLYSGVPDRFSGSGSGTEFTLKISRVEAEDVGVYYCWQGTLFPRTFGGGTKVEIKR
notes: Human IgG1 / kappa

- binding result [1]: no binding
- binding result [2]: binds
- binding result [3]: binds
B7: rat anti-human IL-22BP antibody rMAb20 (antibody, rat IgG1, V domains shown)
VH: QVQLKESGPGLVQPSQTLSLACTVSGFSLTTYHVHWVRQPSGEGLEWMGVIWTGGSTEYNSALKPRLSISRDTSKSQVFLKMNVLQTEDTATYYCARESRGRRIFDYWGQGVMVTVSS
VL: DIQMTQSPSVLSASVGDRVTLNCKASQNINKYLNWYQQKLGEAPKLLIYNTNNLQTGIPSRFSGSGSGTDYTLTISSLQPEDFGTYFCFHHNSWPLTFGSGTKLEIKR
notes: as for B1

- binding result [2]: binds
- binding result [3]: binds
- binding result [6]: binds
B8: rat anti-human IL-22BP antibody rMAb8 (antibody, rat IgG2a, V domains shown)
VH: QVQLKESGPGLVQPSQTLSLTCTVSGFSLSSYTVSWVRQPPGKGLDWIAAISSGGSTYYNSALKSRLTISRDTSKSQVFLKMNSLQTEDTAMYFCARSTGDYWGQGVMVTVSS
VL: DIQMTQSPSLLSASVGDRVTLNCKASQSIYKNLAWYQQKLGEAPKLLIYSAKSLQTGTPSRFSGSGSGTDFTLTISSLQPEDVATYFCHQYYSGWTFGGGTKLELKR
notes: Rat IgG2a, kappa chain, from hybridoma

- binding result [2]: binds
- binding result [3]: binds
- binding result [6]: binds
B9: rat anti-human IL-22BP antibody rMAb14 (antibody, rat IgG1, V domains shown)
VH: QVQLKESGPGLVQPSQTLSLTCTVSGFSLTSYTVSWVRQPPGKGLEWIAAISSGGSTYYNSALKSRLSISRDTSKSQVFLKMSSLQTEDAAMYFCARSTGDYWGQGVMVTVSS
VL: DIQMTQSPSLLSASVGDRVTLNCKASQNIYKNLAWYQQKLGETPRLLIYSANRLQTGIPSRFSGSGSGTDFTLTISSLQPEDVATYFCHQYYSGWTFGGGTKLELKR
notes: as for B1

- binding result [7]: binds
B10: humanized anti-human IL-22BP antibody hMAb4_H03L01 (antibody, human IgG1, kappa, V domains shown)
VH: EVQLVESGGGLVQPGGSLRLSCAASGFTYSNYVMAWVRQAPGKGLEWVASISTGGGNTAYRDSVKGRFTISRDNSKNTLYLQMNSLRAEDTAVYYCARVSPTEGMDYWGQGTLVTVSS
VL: DIVMTQGPLSLPVTPGEPASISCRSSKSLLYSNGKTYLNWYLQKPGQSPQLLIYWMSTRASGVPDRFSGGGSGTDFTLKISRVEAEDVGVYYCQQGLELPLTFGQGTKVEIKR
notes: Human IgG1 / kappa

- binding result [7]: binds
B11: humanized anti-human IL-22BP antibody hMAb4_H02L05 (antibody, human IgG1, kappa, V domains shown)
VH: EVQLVESGGGLVQPGGSLRLSCAASGFTYSNYVMAWVRQAPGKGLEWVSSISTGGGNTAYRDSVKGRFTISRDNSKNTLYLQMNSLRAEDTAVYYCARVSPTEGMDYWGQGTLVTVSS
VL: DIQMTQSPSSLSASVGDRVTITCRSSKSLLYSNGKTYLNWYQQKPGKSPKLLIYWMSTRASGVPDRFSGGGSGTDFTLTISSLQPEDFATYYCQQGLELPLTFGQGTKVEIKR
notes: Human IgG1 / kappa

- binding result [7]: binds
B12: humanized anti-human IL-22BP antibody hMAb4_H03L03 (antibody, human IgG1, kappa, V domains shown)
VH: EVQLVESGGGLVQPGGSLRLSCAASGFTYSNYVMAWVRQAPGKGLEWVASISTGGGNTAYRDSVKGRFTISRDNSKNTLYLQMNSLRAEDTAVYYCARVSPTEGMDYWGQGTLVTVSS
VL: DIVMTQGPDSLAVSLGERATITCRSSKSLLYSNGKTYLNWYQQKPGQPPKLLIYWMSTRASGVPDRFSGGGSGTDFTLTISSLQAEDVAVYYCQQGLELPLTFGQGTKVEIKR
notes: Human IgG1 / kappa

- binding result [1]: no binding
- binding result [4]: binds
- binding result [2]: binds
B13: rat anti-human IL-22BP antibody rMAb4 (antibody, rat IgG1, V domains shown)
VH: EVQLVESGGGLVQPGRSLKLSCAASGFTYSNYVMAWVRQAPTKGLEWVASISTGGGNTSYRDSVKGRFTISRDNAKNTLYLQMDSLRSEDTATYYCANVSPTEGMDYWGQGVMVTVSS
VL: DIVMTQGALPNPVPSGESVSITCRSSKSLLYSNGKTYLNWYLQRPGQSPQLLIYWMSTRASGVSDRFSGGGSGTDFTLKISGVEAEDVGVYYCQQGLELPLTFGSGTKLEIKR
notes: as for B1

- binding result [7]: binds
B14: human chimeric anti-human IL-22BP antibody cMAb4 (antibody, human IgG1, kappa, V domains shown)
VH: EVQLVESGGGLVQPGRSLKLSCAASGFTYSNYVMAWVRQAPTKGLEWVASISTGGGNTAYRDSVKGRFTISRDNAKNTLYLQMDSLRSEDTATYYCARVSPTEGMDYWGQGVMVTVSS
VL: DIVMTQGALPNPVPSGESVSITCRSSKSLLYSNGKTYLNWYLQRPGQSPQLLIYWMSTRASGVSDRFSGGGSGTDFTLKISGVEAEDVGVYYCQQGLELPLTFGSGTKLEIKR
notes: as for B4
